Earlier results, collected in publication PMC12404997.

Biological target: RhoA (Homo sapiens) (UniProt P61586)
Sequence of UniProt P61586 (P61586 1-190): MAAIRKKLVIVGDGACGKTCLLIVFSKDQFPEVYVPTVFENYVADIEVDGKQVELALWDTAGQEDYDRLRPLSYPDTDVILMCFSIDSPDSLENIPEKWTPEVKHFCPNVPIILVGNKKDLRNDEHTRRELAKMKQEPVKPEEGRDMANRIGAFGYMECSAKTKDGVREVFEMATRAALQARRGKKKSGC

Kd: 7 µM
Substance: anillin (from UniProt Q9NQW6)
